The target in this test is artificial receptor (AR) on 293/6H cells: anti-5His single chain antibody fused with the transmembrane domain of the PDGF receptor. Nature of the test: cell-based or functional assay.

In US20050095231A1 one finds Ad5LucFF/6H-expressed luciferase activities in 293/6H cells expressing AR compared to parental 293 cells (orders of magnitude) data, which are given here for one substance.

Consider “fiber-fibritin-6His chimera (FF/6H), as carried by Ad5LucFF/6H virions”, for which the Ad5LucFF/6H-expressed luciferase activities in 293/6H cells expressing AR compared to parental 293 cells (orders of magnitude) turned out to be 2.
